According to patent publication US12252534 (Scripps Research, dated 2025):

B1: UCHT-1 (SEQ ID NOS: 84, 85) anti-CD3 Fab (Fab, V domains shown)
VH: EVQLVESGGGLVQPGGSLRLSCAASGYSFTGYTMNWVRQAPGKGLEWVALINPYKGVSTYNQKFKDRFTISVDKSKNTAYLQMNSLRAEDTAVYYCARSGYYGDSDWYFDVWGQGTLVTVSS
VL: DIQMTQSPSSLSASVGDRVTITCRASQDIRNYLNWYQQKPGKAPKLLIYYTSRLESGVPSRFSGSGSGTDYTLTISSLQPEDFATYYCQQGNTLPWTFGQGTKVEIKR
notes: The unconjugated UCHT-1 that was tested may carry pAcF residues; also called clone UCHT-1
B2: huL5H2_DI-1×DUPA (SEQ ID NOS: 39, 44) (Fab, V domains shown)
VH: EVQLVESGGGLVQPGGSLRLSCAASGFTFNTYAMNWVRQAPGKGLEWVARIRSKYNNYATYYADSVKDRFTISRDDSKNTLYLQMNSLRAEDTAVYYCVRHGNFGNSYVSWFAYWGQGTLVTVSS
VL: QAVVTQEPSLTVSPGGTVTLTCRSSTGAVTTSNYANWVQQKPDHLFRGLIGGTNKRAPGTPARFSGSLLGDKAALTISGAQPEDEAEYYCALWYSNLWVFGGGTKLTVLK
modifications: pAcF at position 141 conjugated by oxime to a DUPA-linker
notes: De-immunized Fab with a single DUPA on the heavy chain; also called L5H2-DI-1X-DUPA; L5H2_DI-1xDUPA

How the values were obtained:
[1] = biological target: T1, cynomolgus CD3 on cynomolgus T cells (HSC-F) (cynomolgus monkey, UniProt Q95LI5 22-198; Q95LI8 22-171; Q95LI7 23-181); test: flow cytometry on HSC-F (cyCD3+) cells, detected with PE-conjugated anti-human kappa secondary antibody; control is the secondary antibody alone
T1 construct: whole, on cells; also called cyCD3+; cell surface CD3 on cynomolgus (HSC-F) T cells
T1 sequence (Q95LI5 22-198, chain 1 of 3): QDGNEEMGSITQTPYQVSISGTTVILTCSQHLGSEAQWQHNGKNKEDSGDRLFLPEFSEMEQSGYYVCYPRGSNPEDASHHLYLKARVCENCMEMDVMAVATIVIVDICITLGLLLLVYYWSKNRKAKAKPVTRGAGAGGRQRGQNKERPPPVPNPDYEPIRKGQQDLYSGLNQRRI
T1 sequence (Q95LI8 22-171, chain 2 of 3): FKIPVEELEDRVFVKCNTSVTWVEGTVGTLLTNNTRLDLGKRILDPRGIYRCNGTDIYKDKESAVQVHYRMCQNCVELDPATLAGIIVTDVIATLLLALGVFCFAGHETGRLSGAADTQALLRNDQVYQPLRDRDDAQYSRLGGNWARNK
T1 sequence (Q95LI7 23-181, chain 3 of 3): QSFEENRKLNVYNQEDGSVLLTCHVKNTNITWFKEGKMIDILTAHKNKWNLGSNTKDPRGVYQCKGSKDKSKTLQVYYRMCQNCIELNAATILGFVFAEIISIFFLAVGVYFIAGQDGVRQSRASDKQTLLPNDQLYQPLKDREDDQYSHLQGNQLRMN
Source text: (§1) Flow cytometry was used to test binding of conjugates to cell surface CD3 on human (Jurkat) and cynomolgus (HSC-F) T cells or PSMA on C4-2 cells.

[2] = biological target: T2, human CD3 on human T cells (Jurkat) (human, UniProt P07766 23-207; P04234 22-171; P09693 23-182); test: flow cytometry on Jurkat (huCD3+) cells, detected with PE-conjugated anti-human kappa secondary antibody; control is the secondary antibody alone
T2 construct: whole, on cells; also called huCD3+; cell surface CD3 on human (Jurkat) T cells
T2 sequence (P07766 23-207, chain 1 of 3): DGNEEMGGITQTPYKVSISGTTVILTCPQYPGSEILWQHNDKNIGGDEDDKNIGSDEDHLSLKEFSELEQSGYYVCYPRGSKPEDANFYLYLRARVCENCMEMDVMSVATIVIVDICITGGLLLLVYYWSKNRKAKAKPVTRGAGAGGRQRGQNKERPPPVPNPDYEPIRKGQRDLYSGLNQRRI
T2 sequence (P04234 22-171, chain 2 of 3): as the sequence (Q95LI8 22-171, chain 2 of 3) above, with V5I, K15N, V20I, T32S, N33D, N34I, A64T, N74S, L83V, R141H counted along it
T2 sequence (P09693 23-182, chain 3 of 3): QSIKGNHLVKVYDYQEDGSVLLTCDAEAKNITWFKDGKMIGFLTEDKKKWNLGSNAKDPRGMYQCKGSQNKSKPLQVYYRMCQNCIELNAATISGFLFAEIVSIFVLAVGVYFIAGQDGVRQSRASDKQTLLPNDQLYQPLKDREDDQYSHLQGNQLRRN
Source text: as §1

[3] = biological target: T3, recombinant cynomolgus monkey CD3 delta/epsilon complex (cy.CD3 d/e-Fc) (cynomolgus monkey, UniProt Q95LI8 22-105; Q95LI5 22-117); test: Octet (BLI), conjugate captured on CH1 sensor, cy.CD3 d/e-Fc as analyte; unit inferred, M implied
T3 construct: also called cynoCD3; not shown: Fc portion
T3 sequence (Q95LI8 22-105, stated change not applied, chain 1 of 2): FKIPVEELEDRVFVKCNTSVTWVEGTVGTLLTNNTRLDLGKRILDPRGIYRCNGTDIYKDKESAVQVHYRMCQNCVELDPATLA
T3 sequence (Q95LI5 22-117, stated change not applied, chain 2 of 2): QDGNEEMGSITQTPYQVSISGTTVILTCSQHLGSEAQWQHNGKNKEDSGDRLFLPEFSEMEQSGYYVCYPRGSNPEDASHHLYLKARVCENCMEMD
Method: (§2) Analytes were serially diluted 1.2× from 6 μg/mL to 1 μg/mL in the 1×PBS. 100 mM glycine (pH 2.87) regeneration solution, and 1×PBS for baseline stabilization was also prepared. Biosensor, ligand and analytes pair is following: (1) CH-1-antibodies-recombinant human or cynomolgus monkey CD3 delta/epsilon complex, (2) Fc-recombinant human or cynomolgus monkey CD3 delta/epsilon complex-antibodies (3) CH-1-antibodies-recombinant human or cynomolgus monkey PSMA; and (4) Ni-NTA-recombinant human or cynomolgus monkey PSMA-antibodies. Prior to the binding measurements, the sensor tips were pre-hydrated in 1×PBS for 30 min, followed by 1 cycles of pre-conditioning with 60-sec dips in glycine (pH 2.87). The sensor tips were then transferred to the ligand-containing wells for a 180-sec loading step. After a 120-sec baseline dip in 1×PBS, the binding kinetics were measured by dipping the ligand-coated sensors into the wells containing corresponding analyte at varying concentrations. The binding interactions were monitored over a 180-sec association period and followed by a 7.5 to 15-min dissociation period in new wells containing fresh 1×PBS.

[4] = biological target: T4, recombinant human CD3 delta/epsilon complex (hu.CD3 d/e-Fc) (human, UniProt P04234 22-105; P07766 23-126); test: Octet (BLI), hu.CD3de-Fc captured on Fc sensor, conjugate as analyte; unit inferred, M implied
T4 construct: not shown: Fc portion
T4 sequence (P04234 22-105, stated change not applied, chain 1 of 2): as the sequence (Q95LI8 22-105, stated change not applied, chain 1 of 2) above, with V5I, K15N, V20I, T32S, N33D, N34I, A64T, N74S, L83V counted along it
T4 sequence (P07766 23-126, stated change not applied, chain 2 of 2): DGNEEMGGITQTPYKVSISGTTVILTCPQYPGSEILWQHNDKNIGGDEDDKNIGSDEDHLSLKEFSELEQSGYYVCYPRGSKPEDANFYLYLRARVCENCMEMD
Method: as §2

[5] = biological target: T3, recombinant cynomolgus monkey CD3 …; test: Octet (BLI), cy.CD3 d/e-Fc captured on Fc sensor, conjugate as analyte; unit inferred, M implied
Method: as §2

[6] = biological target: T4, recombinant human CD3 delta/epsilon …; test: Octet (BLI), conjugate captured on CH1 sensor, hu.CD3 d/e-Fc as analyte; unit inferred, M implied
Method: as §2

Binder	binding result [1]	binding result [2]	Kd [3] [nM]	Kd [4] [nM]	Kd [5] [nM]	Kd [6] [nM]
B1	no binding	binds				
B2			3.29	21.2	11.3	4.83
